Data: publication PMC12363810

Target: proliferating cell nuclear antigen (PCNA), Saccharomyces cerevisiae (Saccharomyces cerevisiae) (UniProt P15873)
Test: single-molecule correlative force and fluorescence microscopy

Sequence of UniProt P15873 (P15873 whole entry): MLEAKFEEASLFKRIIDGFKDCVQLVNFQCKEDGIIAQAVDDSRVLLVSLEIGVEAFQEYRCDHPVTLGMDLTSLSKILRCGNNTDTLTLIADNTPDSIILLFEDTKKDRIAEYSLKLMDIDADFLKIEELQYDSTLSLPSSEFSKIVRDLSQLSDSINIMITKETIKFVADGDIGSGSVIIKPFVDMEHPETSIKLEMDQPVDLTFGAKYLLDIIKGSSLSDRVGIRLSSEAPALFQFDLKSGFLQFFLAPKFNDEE

Substance: replication factor C (RFC), Saccharomyces cerevisiae, full-length (from UniProt P38630 1-861) (complex)
- tethers with RFC along the path of fill-in together with PCNA (of 14 tethers): 9
